Reference: US20150086555A1 (THERACLONE SCIENCES, published 2015)

B1: TCN-550 (5096_F06) (antibody, V domains shown)
VH: QVQLQESGPGLVKPSETLSLTCTVSGASINSHYWSWIRQPPGKGLEWIGYVYYSGSTTYNPSLKSRVTLSVDTSKNQFSLNLSSVTAADTAFYYCARHPYDVLTGSGDWFDPWGQGTLVTVSS
VL: SYVLTQAPSVSVAPGQTARITCGGNAIGSKKVHWYQHKAGQAPVLVVYDDTDRPSGIPERFSGSNSWSTATLTINRVEAGDEADYYCQVWDFTIDHVVFGGGTKLTVL
B2: TCN-551 (5243_D01) (antibody, V domains shown)
VH: EVQLVQSGSEVKKPGESLKISCKGSGYSFSNYWIGWVRHMPGKGLEWMGIIYPGDSDTRYSPSFQGQVTMSADKSSSTVYLQWSSLKASDTAIYYCARRGGHSFGYGSGGDTHSEFDSWGQGTLVTVSS
VL: QSVLTQSPSVSAAPGQKVTISCSGSDSNIGDYFVCWYQHLPGKPPQLLIYENNKRPSGIPDRFSGSKSGTSATLGITGIQTGDEADYYCATWDGSLSAWVFGGGTKLTVL
B3: TCN-552 (5249_I23) (antibody, V domains shown)
VH: QVQVVQSGAEVKKPGSSVRVSCQASGGTFMNYAIIWVRRAPGQGLEWMGGIIPVFPTPNYAQMFQGRVTISTDESRSTSFLELTNLRYEDTAVYYCARRIYHGGNSGFDFWGQGTLVTVSS
VL: EIVLTQSPATLSLSPGERATLSCRASQSVGNYLAWYQQKPGQAPRLLIYDSSNRAPGIPARFSGSGSGTDFTLTISSLAPEDFAVYYCQQRSKWPPMYSFGHGTKLEIK
B4: TCN-544 (5082_A19) (antibody, V domains shown)
VH: QVQLQESGPGLVKPSETLSLTCTVSRGSIGHYFWSWIRQPPGKGLEWIGYISYSGSTKYNPSLRSRVTISVDTSKNQFSLNLNSVTATDTALYYCAREDYDILTGAGPGMEVWGQGTTVTVSS
VL: QSMLTQPPSASGTPGQRVTISCSGSSSNIGSNTVNWFKHLPGTAPKLLIYRNDLRPSGVPDRFSGSKSGTSASLAISGLQSEDEADYYCATWDDSLNGFYVFGTGTKVTVL
B5: TCN-543 (5081_G23) (antibody, V domains shown)
VH: QVHLVQSGAEVRKPGDSVKVSCKTSGYTFSTYPVAWVRQVPGQGLEWMGWISTYNGNTNFAQNFQGRVTLTTDTTTNTAYMEVRSLKFDDTAVYYCARVEGSYRDFWNNQNRFDPWGQGTLVTVSS
VL: SYVLTQPPSVSVAPGQTARISCGGSNIGGKSVHWYQQKPGQAPVLVVYDDSGRPSGIPERFSGSNSGDTATLTISRVEAGDEADYFCQVWDNFGGVFGTGTKVTVL
B6: TCN-545 (5082_I15) (antibody, V domains shown)
VH: QVQLQQWGAGLLKPSETLSLSCAVFGGSFSDYYWTWIRQPPGKGLEWIGEIKHSGRTNYNPSLESRVTISVDTSKNQFSLKLSSVTAADTAIYYCARGTDPDTEGYCRSGSCSAFDFWGQGTLVTVSS
VL: EIVLTQSPGTLSLSPGERATLSCRASHFVNYRSLAWYQQTPGQVPRLLIYGASTRATGIPDRFSGSGSGTDFTLTISRLEPEDFAVYFCQQYGGSPRYTFGQGTRLEIK
B7: TCN-553 (5261_C18) (antibody, V domains shown)
VH: QVQVVQSGTEVKKPGSSVKVSCQTSGGRFMSYAITWVRQAPGQGLEWMGGIVPVFGTANYAQKFQGRVTITTDDSTRTAYMELSSLRSEDTAVYYCGFRYGSGYGFDSWGQGTLVTVSS
VL: EIVLTQSPGTLSLSPGERATLSCRASQSVSSSYLAWYQKKPGQAPRLLIYGASTRATGIPDRFTGSGSGTDFTLSISRLEPEDFAVYYCQHFGTSVFTFGGGTKVEIK
B8: TCN-554 (5277_M05) (antibody, V domains shown)
VH: QVQLVQSGADLKKPGASVKVSCKASGYTFTDYYIHWVRQAPGQGLEWMGWINPESGDTKYAQKFQGRVTMTRDTSITTAYMELGRLRSDDTAVYYCARDVSTTWSWFAPWGQGTLVTVSS
VL: DIVMTQSPDSLAVSLGERATINCRSSQSIFHNSNNENYLAWYQQKPGQPPKLLIYWASTRESGVPDRFSGSGSGTDFTLTISSLQAEDVAVYFCQQYYNAPLTFGGGTKVEIK

Target: hemagglutinin on live influenza A virus, A/California/4/09 H1N1 (Influenza A virus …)
Test: cell-based or functional assay

Row | Binder | % Neutralization [%]
1 | B1 | 0
2 | B2 | 74
3 | B3 | 81
4 | B4 | 0
5 | B5 | 0
6 | B6 | 0
7 | B7 | 83
8 | B8 | 0
